Data published in publication PMC9529537 (The Innovation, 2022).

Molecular target: E protein on YFV virions (Yellow fever virus, strain of the …)
Test: flow cytometry on cells

B1: YD73 human monoclonal antibody, full-length IgG1 (antibody, V domains shown)
VH: QVQLVQSGAEVKKPGASVKVSCKASGYTFIAYGISWVRQAPGQGLEWMGWISAHNGNTNYAQKFQGRVTVTTDTTTRTAFMELRNLRSDDTAVYYCARAPWEYNYRSSGYYDSPYWGQGTLVTVSS
VL: EIVLTQSPGTLSLSPGERATLSCRASQSVVSTYLAWYQQKPGQAPRLLIYDTSTRATGIPDRFSGSGSGTDFTLTISRLEPEDFAVYYCQHYDSSPPWTFGQGTKVEIK
binding result: binds

B2: YD6 human monoclonal antibody, full-length IgG1 (antibody, V domains shown)
VH: EVQLVESGGGLVKPGGSLRLSCAASGFIFSDYYMMWIRQAPGKGLEWISYISSSGSQIYYTESVKGRFTISRDNGKNLLYLQMNSLRGEDTALYYCATETGWRIDTWGQGTLVTVSS
VL: QAVLTQPASVSGSPGQSITISCTGTGSNIETYNLVSWYQRHPGKAPKLILYEVSERPSGVSNRFSGSKSGNTASLTISGLQAEDEADYFCCSYADTNIFWVFGGGTHLTVL
binding result: binds
